Assay: label from the status in PepcDB records

Sequence | protein production
MPSGQALRISRTCRLNAHPRFDRLWRSPTPIQVSAMIVAFRLFLACLGLFLCLSSPLAAQVSLYSGIAGTSDESAGGDLAEAIRAASEAGASVIVIDSAGRVAAAGTEAGAVETARVDPMGEASQLMKAQEKVSDFIGALRSRLEALPYSIFEVQYILRQTSPDGRIATYAEVLAINLVLLLIGRWMSIEIYGKRIARKHVVSRIREAPRGYREKMPFLVFRFVMGVGATLFAMVFAFIIGFLIFGPMQDLSIQFTVTAIFTAYFLARTASDLWRMVLSPYLSQYRLPPFSDRDAKRLYLWASLLATYDISSELFSTWVADFGLNYNVYAMVYGVLTGVGALGNVLMVLFNGRAISNAIRGGRTKDEVSWILRLVSVAWAPVVLFYMVFGWLQLAFDLVLERPVHIPLMAGTYGIFMSVVVAYGAMNYLLERYFDRTRQVKELNAALAEAEAAEDLSMTGVSAQRHHIATFEDLARRVAGILAFVVGTYALVLIWNPEMDWTGDLPIDRALDVMVIIFLGYIVFHFFRIWIDSKIAEETVDVPEGELGDEGGGTSASRLATLLPLFRGAILAVVVVSIVLIALMEVGINVSPLFAGAGVVGLAVGFGSQTLVRDIFSGAFFLVDDAFRKGEYIDIGDVKGTVEKISVRSFQLRHHLGALHTIPFGEIKVLTNFSRDWVIMKLPLRVTYDTDVEKVRKLIKNLGQELLSDPVIGDNFIQPLKSQGVIEMQDSAMIIRVKFMTKPGDQWLVRKRVYQDIRELFAREGIKFAHREVTVRLADGQEAAKMTPQQREAVTGAVQAAIDEDVLDDMMDDDR | failed
MPSIIEAKHQGQKQSKNELKQARQSVIEQIQDLVPSSTVTHEYDFLFSGFALELPAHQIPSILGIDGVHAVYPNIEYEVETDFDEVVIEKDAYSPEMLDSAPFIGANDAWEAGYTGEGITVAILDTGVDYTHPDLVHAFGDYKGWDFIDNNDDPQETPPGDPRGIETTHGTHVAGTVAANGLIKGVAPDANLLAYRVLGPGGRGSTAGVIAGIERAVQDGADIMNLSLGNTLNDPDFATSIALDWAMAEGVVAVTSNGNSGPNNWTVGSPGTSRDAISVGATRLPYNKYKASVFTSDGIDYPSADIMGFPSDEELLELDGETYEYAFAGLGKPGDFEGVDVEGKIALIVRGEIPFVEKAENAKAAGAVGAIIYNNVAGVQPTVPGLAIPTIMLSNEDGLKMRNELENGQNTVTFSIEFDKLVGETVADFSSRGPVMHTWMIKPDVSAPGVAIVSTIPTHQPDDPYGYGSRQGTSMASPHVAGAAALLLEAHPNWGVDHVKAALMNTAENLVDENGNRYPHNTQGAGSIRIVDAIESETLVTPGSHSFGTFTKERGKQVERQHFTIHNLSNKRKTYQFDVQFAGNPDGIKVKTSKNLRVQPGKTQKINFNVQVDARKLDPGYYEGTIIVSDGSQTVEVPTILFVSEPDYPRVTTFDLDIDENGVLFGSAYLPNGAEEFGLWIYTRDTLEYVTSAAVVQNIGKGYHDVTWDTTELAPGRYYVFAYAERLGKTDFVLGDEIVVKLEHHHHHH | failed
MPSLGCCYIMGGTVLWAIAAELFFESMNLITWLADFSRGHCVGICAALVPSILLWTTICAVLIALGQPRWSVNTAYVATLTVCGVMVLHVASWFSIGVITPVTFILLGLSLSCGSLATLFWRYSSQWQKFCHSGLRETIKAKWPQTLKI | failed
MPSLTTLRSRELGPETFIPYVRHVDESTIALDSRALMVMIALEGVSFETADILDLNALHRDLNTLYRNIADERLALWTHLIRRRDNSYPEGTFATPFSAALNDKYRERMVGEDLFRNDLYLSILWSPARDPADKAAKLLSRLRRARRVGTELDEGALKHLRDKVIDVTAALRRFEPRVLTLYEHDGLMFSEPSEVLHQLVGGRREPIPLTEGHIASAIYSDRVIVGRETIEIRHEADSRYAGMLSFKEYPARTRTGMLDAVLTSPFELILAQSFSFVSKADARMIMGRKQNQMVSSGDKAASQIEELDGAMDDLESNRFVFGEHHLTLSVFAPSVKELTDNLAKARASMTSGGAVVAREDLGLEAAWWAQLPGNFRYRARSGAITSRNFAALSPFHSYPLGQKDGNEWGPAVALLKTASGSPYYFNFHYGDLGNTFVCGPSGAGKTVLLNFMLSQLEKHDPHVVFFDKDRGADLYVRAAGGTYLPLKNGIPTGCTPLKALELTPENKVFLTRWVGKLVGSATRELSVTELRDISSAIDGLADLPVERRTIGALRTFLDNTNPEGIAARLRRWERGGPLGWVFDNVIEDIGFGEFGGGKLVGYDMTDFLDNEEIRAPLMAYLFHRVEQLIDGRRIIIVIDEFWKALQDEGFRDLAQNKLKTIRKQNGLMLFATQSPRDAIVSPIAHTIIEQCPTQIFLPNSRGNHGDYVDGFKLTEREFELVARELSIESRRFVLKQGHNSVVAELDLKGLDDELAILSGRTANVELADAIRAEVGSNAKDWLPVFQQRRSATLEHHHHHH | failed
MPSPTVTSPQVAVNDIGSSEDFLAAIDKTIKYFNDGDIVEGTIVKVDRDEVLLDIGYKTEGVIPARELSIKHDVDPNEVVSVGDEVEALVLTKEDKEGRLILSKKRAQYERAWGTIEALKEKDEAVKGTVIEVVKGGLILDIGLRGFLPASLVEMRRVRDLQPYIGKEIEAKIIELDKNRNNVVLSRRAWLEQTQSEVRSEFLNNLQKGTIRKGVVSSIVNFGAFVDLGGVDGLVHVSELSWKHIDHPSEVVQVGDEVTVEVLDVDMDRERVSLSLKATQEDPWRHFARTHAIGQIVPGKVTKLVPFGAFVRVEEGIEGLVHISELAERHVEVPDQVVAVGDDAMVKVIDIDLERRRISLSLKQANEDYTEEFDPAKYGMADSYDEQGNYIFPEGFDAETNEWLEGFEKQRAEWEARYAEAERRHKMHTAQMEKFAAAETAGRGADDQSSASSAPSEKTAGGSLASDAQLAALREKLAGSALEHHHHHH | failed
MPSQKPIIVSKTSAAASSSSDRLRIIPLGGLHEIGKNTCIYEVGDEILLVDAGLAFPTDGMHGVNVVLPDMTYLRENQHRIKAMVVTHGHEDHIGGIPFHLRQLDIPIIYGPRLAMALLAGKLEEAGVVGRANVKTVQPREVVRIGQNFLVEFIRNTHSIADSFTLAIRTPLGVVIHTGDFKFDHTPVDGETFDIQRLADYGEQGVLCLVSDSTNAELPGFTPSERSVFPNLDRAFSQAQGRLIVTTFASSVHRVNMILELAKKHGRKVTVLGRSMLNVIAHARNLGYIHCSDDLFLPPKELRDHPDRDVLILTTGSQGEPLAALTRIARQEHPQVKIRQGDTVIFSANPIPGNTISVVNTIDQLMMQGAHVVYGKGAGIHVSGHGCQEDQKLMIALTKPKFFVPVHGEHRMLVQHCKTAQSMGVPPEHMIVIDNGDTVELTPESIGLGDRVTAGIELVDTSRTGLVDGKALKERQQLAEDGLVSLSALVNSQGQLVDAPTVHLRGVVTSADPRRVSVWAQKEVEMALDNRWADYCRRLPSGELDVDWVGLHAEVEVGMQRRLKRELQCVPMILCTLQSVPSVAAQPAEEDNRMRRRRSSAPIKVGAKL | failed
MPSRKFADGEVVRGRWPGSSLYYEVEILSHDSTSQLYTVKYKDGTELELKENDIK | not failed
MPSRQLQILIRKTLPLVPDHVLIIGESGIAFSKATNLLGQEFEHILFDGRNGIHLEALAIAAGTLKMGGTLCLVLSDWENLSQQPDQDSLRWNGNQSAIATPNFIYHFKQCIERYHFPILREESAVEFPTVFYSNEHHKNATLAQQQIIENILQAEQDIYFLTAKRGRGKSALLGMLANQIQAPVYLTAPNKSAVHSVIEFSEGDIEFIAPDELALTLQTEPEFSQSAWLLVDEAAMIPLPLLQEYSRYFQHIVFSTTIHSYEGTGRGFELKFKRKIHRTFQHFELKQPLRWQENDPLEHFIDDLLLLNAEDDFQHFDYSNITYNIEENAKNLSFPCLRGKVPEGPKGGFRYS | failed
MPSSFNVESADGYERLMGRWSRKLAPMLIDFAGLADGDRVLDVGCGTGSLAFTLAETSGLQEIAAVDYSPVFVEAATRRNTDPRVSIRQADACALPFEDDRFDRAMSLLVLHFVPEAGKAVSEMRRVVRPGGVVAAAVWDHYGGMSGMRMMWDTVAMLDEGALPLRRKYCFQPMMRPGEMKESFIAQGLADVEETSLLIRMEYVSFADYWEPIAAGEGPLGKYVAGLDPAKRKAVDAAMRAAYEAGEPDGPRSFAAVAWACRGRVPGQS | failed
MPSSMLSHDPVLTWSIVALATAGVIIRPMRWPEAVWAVAGAVALVALGLLSWQDALAGVRNGIDVYLFLIGMMLIAELAQREGLFDYLAAYAVEHARGSPQRLFLLVYAVGVLVTVLLSNDATAIVLTPAVYAATRAAGAAPLPYLFVCAFIANAASFVLPISNPANLVVFGEHMPHLGGWLQQFTLPSLAAILATYLVLRLALRRSLAGQTIETRVETPHLSRGGKLAAVGIGAIAIVLLTASALNVALGLPTFVCGLVTTAVVLAIARQSPVPVLKGVSWSVVPLVAGLFVMVEALSRTGVIGALGGLLREAVADAPRLGSWAAGIVTAIACNIGNNLPVGLVAGSVAADNHLPRETIAALLIGVDLGPNFSVTGSLATILWLVVLRRNQIEVTAWRFLKLGLVVTPPALIAALAAAVW | failed
MPSTLQGTFHTYRIIRRLGQGAFGEVSLAGVLETGEVVALKRIHIRNTGGIPDVVVREIKALQSVSHPNVVALLDVFPKGQAIYLVQEYCTTDLAALLRRLPAPPPERIAKGLMLQLCRGLEALHAEGIMHRDVKPSNTLLSAASGTAKLADCGLARPLDGGERPAYTHAVATRWYRAPELLYGARAYGPAVDVWALGLVFAELLGLSPLVPGDNDIDQLGRVIATFGSMEPVWLGVRALPDWGKIAFPHCEPLPLGDLLPGAPAAALEFLAAFLRYDPAKRITAACAVRSTYLTATQPL | failed
MPSTQSLTVAAKTLRNRIFSRSGSTSAGPSRWATPGHEERPKGYFMNRTPPAPGQSRKWEDWELPCYITSFLTIVILGVGLNAKPDLSIETWAHQKALERLEMEKLATAGDSSD | failed
MPTIFQIPTFIQILEFIGTFAFAISGIRLASAKQFDWFGAYVAGVAVAIGGGTIRDVLLDVTPFWMTNPIYLICSALALLWVIFFRKHLIHMHNTFFIFDSIGLALFTVVGISKTIDLGYAFWVAIIMGTMTGAAGGVIRDVFINEIPLIFRKEIYAMACVIGGVIYWGLDRFGVDAALTQVISGCCIFVVRALAVKYQICLPILKGE | failed
MPTINQLIRKERKKVVKKTKSPALVECPQRRGVCTRVYTTTPKKPNSALRKVAKVRLTSKFEVISYIPGEGHNLQEHSIVLVRGGRVKDLPGVKYHIVRGALDTAGVNKRTVSRSKYGTKKAKATDKKATDNKKK | failed
MPTKKMTRAQTCPHQTTVISNLKIIPLTLGWLLKSALLIIIIAVFIPLSPKMPAPGLDASWAVGLNQAVAQGLAFGKDIFFTLGPYSSIYTKFYHPATDFMMVGGSLYLALCYWIAIILLMQGIKWRWSIAFAILLFSMIYARDSLFFSYSLIIGLLIHKEISGKETSFKSNFCTLFALLFTPFGLFPLIKGSLLILSIITVLLCSLFLILYKQRNLAVLCLASPVVSILFFWIASGQSIFNLPAYVSNTILLASGFTEAMAIEGDNKELIFFGVTSSCILLSILLQKQLSPLSKAFLFCIYLVFLFLSYKTGFTRHFGHAFIAGTSVLLASFLLPYFNSNNKVIVPLLALSLYTASYINGHYTKISVRDNFISTYTAAYYGLKNRIQNKNWLKENFSLTMNYLKARDDFPRLPGTTDIYSYNQTSLIASGMTWSPRPIFQSYSVFTAKMAEINTNYLLSENKPDNILFKVEPIDNRIPSMEDGMSWPILINHYQPVRLENDFLFLRKKLVNKPVTSLVPLKTEIHTFGEQVKIPDTDKSLFVEIDIQPTLWGMLATTFFKPHQLEANLELKNGTQRQYRLISNMAKSGFLLSPFIENSAEFGLLFSQNNYLAGKKVISFSINSKQVPSSHWQTKYTIHYKTFASNN | failed
MPTTDLRKAQLQIHFCVLLWGITAILGKLITLQALPLVWWRMLIVVVALALWPRVWRGLRGLSGRVVLGYCGIGALVALHWLTFYGAIKLANASVAATCIALAPVFTAVIEPLVTHRPFRPRELLFGLAVLPGVALVVGGVPDGMRAGVVVGAISAVFVGLFGSLNKRMVAHADPLTVTALELGAGTLTLTLLAPAMPLLLPALHGDLLVVPSLHDGVLLLALSLACTLLPFALALVALRHLSAYSVQLVTNLEPVYAIVLAIALLGEQRELTLQFYLGVAIILGAVFLHPVLERRRTVAHPELLGTAEAKNIVD | failed
